Data: US7217525 (Johns Hopkins, dated 2007)

Target: T1, Narp (recombinant, expressed in transfected HEK-293 cells) (Rattus norvegicus (Rat), UniProt P97738 15-432)
T1 sequence: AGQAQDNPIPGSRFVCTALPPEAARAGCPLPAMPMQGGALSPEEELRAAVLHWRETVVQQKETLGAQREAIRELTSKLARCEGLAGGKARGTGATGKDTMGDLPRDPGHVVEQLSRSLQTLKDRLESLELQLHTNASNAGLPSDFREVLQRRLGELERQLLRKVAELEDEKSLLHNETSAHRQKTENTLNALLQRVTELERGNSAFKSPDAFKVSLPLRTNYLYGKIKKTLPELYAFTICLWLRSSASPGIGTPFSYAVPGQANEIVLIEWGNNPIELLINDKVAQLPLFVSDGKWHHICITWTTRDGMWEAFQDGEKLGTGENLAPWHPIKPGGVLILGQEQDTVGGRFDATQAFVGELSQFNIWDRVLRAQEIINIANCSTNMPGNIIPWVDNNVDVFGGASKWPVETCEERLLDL
Test: cell-based or functional assay

- increase in intercellular myc-Narp*GluR1 co-clusters when untagged Narp is co-expressed with GluR1 in the apposing 293 cell: 2 fold
B1: C-terminal myc-tagged version of Narp (designated myc-Narp) (ligand, not shown: small tags and cut ends)
chain: AGQAQDNPIPGSRFVCTALPPEAARAGCPLPAMPMQGGALSPEEELRAAVLHWRETVVQQKETLGAQREAIRELTSKLARCEGLAGGKARGTGATGKDTMGDLPRDPGHVVEQLSRSLQTLKDRLESLELQLHTNASNAGLPSDFREVLQRRLGELERQLLRKVAELEDEKSLLHNETSAHRQKTENTLNALLQRVTELERGNSAFKSPDAFKVSLPLRTNYLYGKIKKTLPELYAFTICLWLRSSASPGIGTPFSYAVPGQANEIVLIEWGNNPIELLINDKVAQLPLFVSDGKWHHICITWTTRDGMWEAFQDGEKLGTGENLAPWHPIKPGGVLILGQEQDTVGGRFDATQAFVGELSQFNIWDRVLRAQEIINIANCSTNMPGNIIPWVDNNVDVFGGASKWPVETCEERLLDL
